Data on one molecule can be found in paper doi:10.64898/2025.12.17.694860, “Structural basis for the inhibition of Trypanosoma brucei enolase by a camelid single-domain antibody” (bioRxiv, 2025).

The target of experiment [1] is T1, Trypanosoma brucei enolase (Trypanosoma brucei (sequence identical …)).
T1 construct: Enolase (phosphopyruvate hydratase) of Trypanosoma brucei; printed MM = 48.4 kDa; Homodimer by analytical SEC and in the crystal; also called TbrENO; T. brucei enolase; source: E. coli, purified (IMAC, SEC); not shown: His tag, N-terminal, kept
As to the kind of experiment: ITC. As to conditions: both partners purified.

The target in experiment [2] is T1, Trypanosoma brucei enolase. As to the kind of experiment: SEC. Conditions: both partners purified.

B1: sdAbR1-10 (VHH)
VHH: QVQLQESGGGLVQPGGSLRLSCAAPGSIFSIFSGNIMGWYRQAPGKQRDFVASISSGGATNYADSVKGRFTISRDNAKNTVYLQMNNLKPEDTAVYYCNTVGGVHTNSWGQGTQVTVSS
Regarding B1, in experiment [1], the Kd was approximately 20 nM and the “stoichiometry N” value is ~1 sdAbR1-10 per TbrENO monomer. Besides, the “stoichiometry N” value in experiment [2] was 2 sdAbR1-10 per TbrENO dimer.

One may read the Kd as the concentration at which binding is half-saturated.
